How the values were obtained:
[1] = system: P. syringae pv. Phaseolicola; assay: Kidney bean plant infection; format: in vivo; conditions: sprayed, 14 days, multiple inoculations
Description: Plants were inoculated twice (day 1 and day 6) with 5×10^6 cells P. syringae pv. Phaseolicola. Left, leaves were sprayed with enzyme buffer after the fist inoculation, for right, leaves were sprayed with buffer containing the QQ lactonase (0.5 mg/mL). Pictures were taken at day 14.
Kidney bean plants were grown and infected with P. syringae pv. Phaseolicola.

[2] = system: Pectobacterium carotovorum CIR354; assay: Soft rot potato assay; format: in vivo; conditions: single spraying of 1 mL, 10 mg/mL
Description: FIG. 30A-30F show control of plant infections by a single spraying of 1 mL of lactonase solution (10 mg/mL) on plant leaves and crop. (A) and (B) Soft rot potato assay.
Specifically, we could establish infection systems for corn, wheat, and barley plants, and a crop infection system for potato (tubers and leaves).

[3] = Lactonase assay (pH indicator, cresol purple), kinetic measurements; format: biochemical; conditions: AHL acyl chain length
Description: Kinetic measurements. The determination of GcL catalytic efficiency was performed by using a microplate reader (Synergy HTX, BioTek, USA) and the software Gen5.1 over a range of substrates (FIG. 2). The reactions were operate in a 96-well plate at a path length of 5.8 mm for a 200 μl reaction volume at room temperature. The catalytic parameters were achieved by fitting the data to Michaelis-Menten equation with the Graph-Pad Prism 5 software. When, Vmax was not reached, the catalytic efficiency was determined by fitting the linear part of Michaelis-Menten plot to a linear regression using Graph-Pad Prism 5.
Lactonase assay. The AHL lactonolysis consisting in the opening of the lactone ring generates a proton, and leads to an acidification of the media. This property allowed the characterization of the lactonases by using a pH indicator assay. To perform the experiment 5 μl of enzyme were added to a solution containing 10 μl of substrates at various concentrations and 185 μl of lactonase buffer (2.5 mM Bicine pH 8.3, 150 mM NaCl, 0.2 mM CoCl2, 0.2 mM cresol purple, 0.5% DMSO). This assay was performed at 25° C. and the time course of the lactones hydrolysis was recorded at 577 nm. The characterization of the enzyme was proceeding against a large panel of AHLs: C4-AHL, C6-AHL, C8-AHL, C10-AHL, 3-oxo-C8-AHL and against γ-Butyrolactone, γ-Heptalactone, γ-Nonalactone, γ-Decanolactone, δ-Valerolactone, δ-Octanolactone, δ-Nonalactone, δ-Decalactone, ε-Caprolactone, ε-Decalactone, Whiskey lactone.

[4] = system: corrosion tubercles on steel coupons; assay: Biocorrosion of coated steel coupons in Duluth-Superior Harbor water, 8 weeks; set-up: concentration or dose not given beside the values; conditions: silica gel coating, two months in DSH water
Description: The steel coupons were washed with soap water, lightly brushed for a few seconds with a test tube brush, and then rinsed with Milli-Q water to remove any loose material. Each coupon was designated with a unique number and weighed before being randomly assigned to a specific experimental treatment.
Each compound or enzyme was added to 5 ml of the silica gel matrix to develop different coating treatments. These coatings were applied by dipping coupons into the appropriate gel mixture for 1 minute, and then the coating on the coupon surface was air-dried at room temperature for 2 hours.
Six treatments and three controls were investigated for corrosion rate and changes in bacterial communities (Table 10). Each treatment or control contained three replicate steel coupons. After the triplicate steel coupons were coated with each biochemical, enzyme or bacterial treatment, they were incubated in experimental microcosms constructed from 10-gallon glass aquaria (Aqueon Glass, 50.8 cm×25.4 cm×30.5 cm) (FIG. 24). Each microcosm was equipped with an aquarium pump (Aquarium Systems Mini-Jet 404) to constantly circulate the water (˜2 L hr−1), and covered with a piece of acrylic with one corner cut out to allow gas exchange. The coupons were hold with plastic holders and immersed in water taken from the DSH for 8 weeks and then recovered for analyses.
The coupons in each treatment was photographed by the end of the experiment. Biocorrosion was evaluated by the number and coverage of corrosion tubercles, and also by imaging of coupon surfaces with an environmental scanning electron microscope (ESEM). The coupon images were captured with DSLR camera immediately after being removed from the harbor water, and then tubercle numbers and total area in digital images were measured using the analyze menu within ImageJ software (NIH, Bethesda, Md., USA). Surface roughness measurements were also made after the exposed coupons were cleaned with ASTM G1-90 iron and steel chemical cleaning procedure (2 min in 37% HCl, 50 g/L SnCl2). A Hitachi TM-3030 ESEM was used to view details of the cleaned coupon surface and the 3D-View software was used to generate surface roughness measurements (SRa). Statistics analysis (T-tests) of the tubercle numbers, coverage and surface roughness were performed using Microsoft Excel software.

[5] = system: biofilm of complex soil microbial community; assay: Biofilm microbial community analysis (16S, MiSeq); format: cell-based
Description: DNA extractions were carried out on biofilms. Submerged wells from the strip-well plates were drained of excess cells/water. Biofilm was scraped from the polypropylene well and put into Powerbead® tubes for DNA extraction (MoBio Powersoil® DNA Extraction Kit). Purified DNA samples were submitted to the University of Minnesota's Genomics Center for 16S rRNA sequencing. Using the Genomics Center platform, each sample underwent amplification, indexing, normalization, pooling, size selection, and final QC for sequencing. The V4 region of the 16s rRNA gene was amplified using primer 515f (5′-GTGCCAGCMGCCGCGGTAA-3′ (SEQ ID NO:14)). After the library preparation steps, it was confirmed all samples passed QC and were submitted for sequencing.
All samples were processed using Mothur v1.35.1. For each sample, 1,250 sequences were used for final analyses. […] Analysis of similarity (ANOSIM) and analysis of molecular variances (AMOVA) were used to evaluate the beta diversity (community composition) among samples using Bray-Curtis dissimilarity matrices (BC) (Bray & Curtis 1957; Clarke 1993). Ordination of Bray-Curtis matrices was performed using principal coordinate analysis (PCoA) to further analyze diversity of sample days throughout the tank (Anderson & Willis 2003). […] All of alpha values evaluated at α=0.05.

B1: SsoPox W263I: improved variant of the hyperthermostable lactonase SsoPox from Sulfolobus solfataricus, exhibiting higher catalytic rates (protein, UniProt Q97VT7 1-314, looked up, variant W263I)
Aryldialkylphosphatase: MRIPLVGKDSIESKDIGFTLIHEHLRVFSEAVRQQWPHLYNEDEEFRNAVNEVKRAMQFGVKTIVDPTVMGLGRDIRFMEKVVKATGINLVAGTGIYIYIDLPFYFLNRSIDEIADLFIHDIKEGIQGTLNKAGFVKIAADEPGITKDVEKVIRAAAIANKETKVPIITHSNAHNNTGLEQQRILTEEGVDPGKILIGHLGDTDNIDYIKKIADKGSFIGLDRYGLDLFLPVDKRNETTLRLIKDGYSDKIMISHDYCCTIDIGTAKPEYKPKLAPRWSITLIFEDTIPFLKRNGVNEEVIATIFKENPKKFFS
Q: Which “protection of kidney bean plant” value [1] does the source give for B1 here?
A: protected the plant from infection

Q: And the “maceration of potato slices” value [2]?
A: less maceration

Q: And the substrate specificity [3]?
A: not capable of degrading short chain AHLs

Q: And the “reduction of the coverage of corrosion tubercles” value [4]?
A: 50%

Q: What about the “reduction of the number (formation) of corrosion tubercles” value [4] of the same molecule?
A: 50%

Q: What about the “Aeromonas share of the biofilm community” value ([5]; day 7, lactonase 1×) of the same molecule?
A: 79.68%

Q: And the “Aeromonas share of the biofilm community” value ([5]; day 7, lactonase 2×)?
A: 42.16%
